Test [1] deals with T1, mouse TIGIT-Fc (mouse, UniProt P86176 29-148).
T1 construct: extracellular domain; also called TIGIT-ECD; not shown: Fc
T1 sequence (looked up): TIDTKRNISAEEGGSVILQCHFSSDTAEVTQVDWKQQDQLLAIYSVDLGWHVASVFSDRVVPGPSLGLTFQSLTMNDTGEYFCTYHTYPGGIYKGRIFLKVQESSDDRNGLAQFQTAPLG
Description: comp. ELISA vs PVR. The procedure: (§1) Antibodies were serially diluted in a 10-point curve starting at 1 μM in 3-fold steps. […] Units are in microM.

For test [2], the target named is T2, biotinylated human TIGIT (human, UniProt Q495A1 22-141, biotinylated (EZ-Link NHS-PEG4-biotin kit)).
T2 construct: extracellular domain; also called TIGIT-ECD
T2 sequence (looked up): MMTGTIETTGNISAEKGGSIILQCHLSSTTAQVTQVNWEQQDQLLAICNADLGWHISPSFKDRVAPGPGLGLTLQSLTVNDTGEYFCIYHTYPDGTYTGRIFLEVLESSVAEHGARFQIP
Description: comp. ELISA vs PVR. The procedure:
as §1

The target in test [3] is T3, His-tagged recombinant Human TIGIT (human, UniProt Q495A1 22-141).
T3 construct: coated antigen of the direct ELISA; not shown: His tag
T3 sequence (looked up): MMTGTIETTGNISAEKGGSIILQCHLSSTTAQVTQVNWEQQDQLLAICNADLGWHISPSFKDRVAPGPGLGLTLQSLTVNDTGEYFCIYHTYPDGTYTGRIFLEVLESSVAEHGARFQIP
Description: ELISA. The procedure: (§2) Binding affinities for antigen binding to anti-TIGIT monoclonal antibodies were determined by ELISA. […] Antibodies to be tested were diluted to 1 μM in PBS buffer containing 1% BSA and diluted 3-fold in a 10-point curve. […] Detection of the secondary antibody was determined using streptavidin-HRP and TMB reagent. All assays were performed at room temperature. Curve-fitting software was used to determine the EC₅₀ for each antibody.

Test [4] deals with T4, His-tagged recombinant Mouse TIGIT (mouse, UniProt P86176 29-148, limits assumed).
T4 construct: coated antigen of the direct ELISA; not shown: His tag
T4 sequence (looked up): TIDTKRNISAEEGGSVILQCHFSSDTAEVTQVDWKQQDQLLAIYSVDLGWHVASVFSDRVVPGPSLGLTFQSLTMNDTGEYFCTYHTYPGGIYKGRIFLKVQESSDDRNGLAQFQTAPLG
Kind of test: ELISA. The procedure:
as §2

The target of test [5] is T5, human TIGIT fused to a beta galactosidase portion, on YTS cells (YTS_hTIGIT/hGrb2) (human, UniProt Q495A1 22-244).
T5 sequence (looked up): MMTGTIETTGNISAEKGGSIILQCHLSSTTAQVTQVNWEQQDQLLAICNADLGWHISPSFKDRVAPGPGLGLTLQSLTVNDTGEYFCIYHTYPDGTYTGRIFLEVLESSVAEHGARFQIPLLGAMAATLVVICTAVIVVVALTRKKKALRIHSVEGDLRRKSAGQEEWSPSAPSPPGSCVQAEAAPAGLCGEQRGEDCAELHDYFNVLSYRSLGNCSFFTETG
Description: cell-based or functional assay.

For test [6], the target named is T6, human TIGIT fused to a beta galactosidase fragment, expressed on YTS cells (human, UniProt Q495A1 22-244).
T6 sequence (looked up): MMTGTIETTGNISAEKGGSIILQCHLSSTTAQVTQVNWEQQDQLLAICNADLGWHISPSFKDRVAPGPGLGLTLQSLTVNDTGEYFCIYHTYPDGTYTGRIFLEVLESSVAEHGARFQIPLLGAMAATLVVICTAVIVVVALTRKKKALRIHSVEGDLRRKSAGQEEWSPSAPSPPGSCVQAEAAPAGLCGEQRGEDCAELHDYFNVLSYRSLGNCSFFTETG
Kind of test: cell-based or functional assay.

Test [7] addresses T7, biotinylated human TIGIT (human, UniProt Q495A1 22-141, biotinylated (EZ-Link NHS-PEG4-biotin kit)).
T7 construct: extracellular domain; also called human TIGIT extra cellular domain; TIGIT-ECD
T7 sequence (looked up): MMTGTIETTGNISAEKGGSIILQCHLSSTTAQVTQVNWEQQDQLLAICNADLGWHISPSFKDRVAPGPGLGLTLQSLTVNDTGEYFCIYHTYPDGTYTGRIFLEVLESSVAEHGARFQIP
Description: competitive ELISA, biotin-hTIGIT to coated PVR. The procedure:
as §1

For test [8], the target named is T8, mouse TIGIT-Fc (mouse, UniProt P86176 29-148).
T8 construct: extracellular domain; also called mouse TIGIT extra cellular domain
T8 sequence (looked up): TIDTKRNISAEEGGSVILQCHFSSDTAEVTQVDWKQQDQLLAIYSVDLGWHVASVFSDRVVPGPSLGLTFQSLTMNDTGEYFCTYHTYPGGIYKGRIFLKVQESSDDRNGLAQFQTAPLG
Kind of test: competitive ELISA, mTIGIT-Fc to coated PVR. The procedure: as §1

Test [9] addresses T9, His-tagged recombinant Mouse TIGIT (mouse, UniProt P86176 29-148, limits assumed).
T9 construct: Coated on the plate at 0.5 µg/mL in the direct ELISA; not shown: His tag
T9 sequence (looked up): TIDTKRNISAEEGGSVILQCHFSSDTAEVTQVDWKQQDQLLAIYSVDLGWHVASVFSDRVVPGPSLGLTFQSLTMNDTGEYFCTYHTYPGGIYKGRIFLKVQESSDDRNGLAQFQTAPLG
Kind of test: ELISA. The procedure: as §2

Test [10] deals with T10, human TIGIT expressed in YTS cells, fused to a portion of beta galactosidase (human, UniProt Q495A1 22-244).
T10 sequence (looked up): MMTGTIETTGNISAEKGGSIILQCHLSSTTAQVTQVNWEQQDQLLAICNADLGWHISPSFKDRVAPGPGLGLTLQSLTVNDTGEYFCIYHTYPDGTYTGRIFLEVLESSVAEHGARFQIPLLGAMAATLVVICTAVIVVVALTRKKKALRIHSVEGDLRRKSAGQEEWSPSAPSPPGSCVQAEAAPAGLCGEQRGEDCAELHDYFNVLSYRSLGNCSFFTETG
Description: cell-based or functional assay.

The target of test [11] is T11, mouse TIGIT-Fc (mouse, UniProt P86176 29-148).
T11 construct: extracellular domain; also called mouse TIGIT-ECD; not shown: Fc
T11 sequence (looked up): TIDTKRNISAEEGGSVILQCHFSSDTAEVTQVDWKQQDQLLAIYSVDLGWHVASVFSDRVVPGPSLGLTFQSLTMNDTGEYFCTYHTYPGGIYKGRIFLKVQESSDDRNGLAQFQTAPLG
Description: competitive ELISA vs coated PVR. The procedure:
as §1

B1: Ab53 (Fab, V domains shown)
VH: EVQLLESGGGLVQPGGSLRLSCAASGFTFSSYSMHWVRQAPGKGLEWVASIKSSSSNKYYADSVKGRFTISRDNSKNTLYLQMNSLRAEDTAVYYCARGPYDVWLDYWGQGTLVTVSS
VL: not shown
On to B1, for which the values for the IC50 in test [1] and in test [2] were 35.3 nM and 9 nM, respectively. The results for the EC50 in test [3] and in test [4] were 4.3 nM and 7.6 nM, respectively. Besides, the “YTS_hTIGI/hGrbs_EFC_Antagonism, 221_hPVR/ICAM” value in test [5] was 0.0303 µM.

B2: Ab48 (Fab, V domains shown)
VH: EVQLLESGGGLVQPGGSLRLSCAASGFTFSSYSMNWVRQAPGKGLEWVANIKSSGSSTSYADSVKGRFTISRDNSKNTLYLQMNSLRAEDTAVYYCARGPYDVWMDYWGQGTLVTVSS
VL: not shown
notes: clone from a phage library of monovalent human Fabs; also called clone Ab48
Consider B2, for which the “EC50 of induced dimerization (YTS_hTIGIT/hTIGIT, 11 pt)” value in test [6] was determined as 477 nM. The IC50 is 111 nM in test [7] and 64.7 nM in test [8].

B3: Ab40i5 (antibody, V domains shown)
VH: EVQLLESGGGLVQPGGSLRLSCAASGFTFSSYSMNWVRQAPGKGLEWVAGIKSSSGNKYYADSVKGRFTISRDNSKNTLYLQMNSLRAEDTAVYYCARGPYDVWMDYWGQGTLVTVSS
VL: not shown
For the molecule B3, the half-maximal inhibitory concentration (IC50) in test [1] was determined as 16.9 nM; in test [2], 4.2 nM. For the same molecule, the EC50 in test [3] is 0.2 nM; in [4], 2.4 nM. Further, in test [5], the “YTS_hTIGI/hGrbs_EFC_Agonism, 221_WT” value was found to be 0.0358 µM. The “YTS_hTIGI/hGrbs_EFC_Antagonism, 221_hPVR/ICAM” value in test [5] worked out at 0.238 µM.

B4: Ab117 (Fab, V domains shown)
VH: EVQLLESGGGLVQPGGSLRLSCAASGFTFSSYAMSWVRQAPGKGLEWVAAIKSSASTIYYADSVKGRFTISRDNSKNTLYLQMNSLRAEDTAVYYCAREPYSVWMDYWGQGTLVTVSS
VL: not shown
notes: ARE
B4: in [9], the EC50 stood at 10.7 nM. Moreover, in test [10], the “YTS_hTIGI/hGrbs_EFC_Agonism (EC50)” value was above 1000 nM, the “YTS_hTIGI/hGrbs_EFC_Antagonism (IC50)” value was above 1000 nM and the “YTS_hTIGIT/hTIGIT_EFC (EC50)” value is above 1000 nM. The molecule also registered an IC50 in test [11] of 23.4 nM.

B5: Ab117 (Fab, V domains shown)
VH: EVQLLESGGGLVQPGGSLRLSCAASGFTFSSYAMSWVRQAPGKGLEWVAAIKSSASTIYYADSVKGRFTISRDNSKNTLYLQMNSLRAEDTAVYYCAREPYSVWMDYWGQGTLVTVSS
VL: not shown
notes: clone from a phage library of monovalent human Fabs; also called clone Ab117
Molecule B5 returned an IC50 in [8] of 23.4 nM.

B6: Ab1 (Fab, V domains shown)
VH: EVQLLESGGGLVQPGGSLRLSCAASGFTFSSYAMHWVRQAPGKGLEWVSGISSNGGSTSYADSVKGRFTISRDNSKNTLYLQMNSLRAEDTAVYYCARVPYSVWIDYWGQGTLVTVSS
VL: not shown
notes: clone from a phage library of monovalent human Fabs; also called clone Ab1
Turning to B6, the IC50 in test [7] was found to be 89.9 nM; in [8], 632 nM.

B7: Ab53i6 (antibody, V domains shown)
VH: EVQLLESGGGLVQPGGSLRLSCAASGFTFSSYGMHWVRQAPGKGLEWVASIKYSSSNKYYADSVKGRFTISRDNSKNTLYLQMNSLRAEDTAVYYCARGPYDVWLDYWGQGTLVTVSS
VL: not shown
For B7, the IC50 in [1] was above 1000 nM; in [2] it was 1.7 nM. The EC50 in test [3] was 0.2 nM; in test [4], 32.3 nM. Moreover, in test [5], the “YTS_hTIGI/hGrbs_EFC_Agonism, 221_WT” value worked out at 0.0077 µM. The “YTS_hTIGI/hGrbs_EFC_Antagonism, 221_hPVR/ICAM” value in test [5] turned out to be 0.0363 µM.

The values above are taken from patent publication US20200339678A1 (RIGEL PHARMACEUTICALS, published 2020).
